The source of these data is patent publication EP1508806A1.

Test [1] addresses rIRS-1 449-664 S570A GST fusion protein, pretreated with PKC-ζ and then tyrosine phosphorylated by insulin receptor (rat) (UniProt P35570). Description: GST pull-down, anti-p85α immunoblot quantified; relative to the insulin-stimulated control value set as 100%. In general terms: Immunoblotting shows a protein as a band on a membrane.
The target of test [2] is rIRS-1 449-664 S612A GST fusion protein, pretreated with PKC-ζ and then tyrosine phosphorylated by insulin receptor (rat) (UniProt P35570). The description is as above.
Test [3] has as its target rIRS-1 449-664 GST fusion protein, pretreated with PKC-ζ and then tyrosine phosphorylated by insulin receptor (rat) (UniProt P35570). Description: GST pull-down, anti-p85α immunoblot quantified; against the insulin-stimulated value without PKC-ζ set as 100%.
Test [4] addresses rIRS-1 449-664 GST fusion protein, pretreated with PKC from rat brain and then tyrosine phosphorylated by insulin receptor (rat) (UniProt P35570). Description: GST pull-down, anti-p85α immunoblot quantified; against the insulin-stimulated value without PKC-rb set as 100%.
The target in test [5] is regulatory p85α subunit of bovine PI 3-kinase (recombinant, GST part removed with thrombin) (bovine) (UniProt P23727). Description: SPR competition: soluble peptide against the same peptide immobilised, 100 nM p85α.
Sequence of UniProt P23727 (P23727 whole entry, the tested form may be a part): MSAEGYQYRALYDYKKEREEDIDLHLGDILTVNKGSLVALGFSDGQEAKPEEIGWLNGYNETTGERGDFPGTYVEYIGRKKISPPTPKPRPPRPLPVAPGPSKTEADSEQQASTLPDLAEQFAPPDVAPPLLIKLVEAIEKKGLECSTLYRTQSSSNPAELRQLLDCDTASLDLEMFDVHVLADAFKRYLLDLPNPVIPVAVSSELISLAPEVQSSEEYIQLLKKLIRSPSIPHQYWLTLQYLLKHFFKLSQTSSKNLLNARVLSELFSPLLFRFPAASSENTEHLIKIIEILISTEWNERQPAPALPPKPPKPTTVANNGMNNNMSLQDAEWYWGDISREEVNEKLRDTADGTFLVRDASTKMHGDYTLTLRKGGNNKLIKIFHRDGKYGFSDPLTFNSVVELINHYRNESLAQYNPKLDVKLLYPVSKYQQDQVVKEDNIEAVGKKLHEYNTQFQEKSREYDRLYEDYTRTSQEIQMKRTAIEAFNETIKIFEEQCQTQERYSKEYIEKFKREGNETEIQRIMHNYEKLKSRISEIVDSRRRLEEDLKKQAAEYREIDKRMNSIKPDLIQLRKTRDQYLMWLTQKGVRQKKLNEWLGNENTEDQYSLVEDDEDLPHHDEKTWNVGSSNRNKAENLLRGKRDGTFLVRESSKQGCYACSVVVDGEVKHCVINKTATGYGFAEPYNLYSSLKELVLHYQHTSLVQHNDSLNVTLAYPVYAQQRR
The target of test [6] is GST fusion protein containing amino acids 449-664 of rat IRS-1 (rIRS-1 449-664), not phosphorylated (rat) (UniProt P35570). Description: cell-based or functional assay.
Test [7] concerns the target rIRS-1 449-664 GST fusion protein, phosphorylated in vitro by PKC from rat brain (rat) (UniProt P35570). Description: cell-based or functional assay.
Test [8] deals with rIRS-1 449-664 GST fusion protein, phosphorylated in vitro by PKC-ζ (rat) (UniProt P35570). Description: cell-based or functional assay.
Test [9] has as its target rIRS-1 449-664 S570A GST fusion protein, pretreated with PKC-ζ (rat) (UniProt P35570). Description: cell-based or functional assay.
The target of test [10] is rIRS-1 449-664 S612A GST fusion protein, pretreated with PKC-ζ (rat) (UniProt P35570). Description: cell-based or functional assay.

For “regulatory p85α subunit of bovine PI 3-kinase (recombinant, GST part removed with thrombin) (from UniProt P23727 1-724)”, the p85α binding, percent of control in [1] was found to be 43%; in [2] it was 28%. In addition, the percent inhibition of p85α binding in test [3] amounted to 81%. Besides, the percent inhibition of the association of p85α in test [4] stood at 49%.
Take “IRS-1 peptide pY608, DDGpYMPMSPGV (amino acids 605 to 615 of rat IRS-1, phosphotyrosine 608)”: the peptide concentration for complete inhibition in test [5] was 10 µM.
On to “insulin receptor, WGA-purified from rat liver, insulin-stimulated and autophosphorylated (from UniProt P15127 27-1383)”, for which the insulin-stimulated tyrosine phosphorylation of rIRS-1^449-664 (anti-phosphotyrosine immunoblot) in test [6] was 8.8 fold. Also, in test [7], the reduction of insulin-stimulated Tyr-phosphorylation of rIRS-1^449-664 after PKC-rb pretreatment was 27%. Besides, the inhibition of tyrosine phosphorylation of rIRS-1^449-664 after PKC-ζ pretreatment in test [8] was 46%. Further, the reduction of tyrosine phosphorylation by IR after PKC-ζ pretreatment in test [8], in test [9] and in [10] was 30 to 40% throughout.
As to “IRS-1 peptide pY608-pS612, DDGpYMPMpSPGV (amino acids 605 to 615 of rat IRS-1, phosphotyrosine 608 and phosphoserine 612)”, the peptide concentration for complete inhibition in test [5] was found to be 10 µM.
